± gives the uncertainty stated by the source.
B1: Zinc finger MYM-type protein 3, residues 589 to 668; numbered along this chain, Q14202 (parent)
chain: LSCHYCHSLFSGKPEVLDWQDQVFQFCCRDCCEDFKRLRGVVSQCEHCRQEKLLHEKLRFSGVEKSFCSEGCVLLYKQDF

Variants of: B1
Assay: abundance fitness (aPCA) (normalised: wild type 0, dead -1); higher = more abundant; growth selection in yeast, the domain comes from the species named
Details: Homo sapiens

Abundance fitness, by site and new letter:
V16: Q 0.003 ± 0.055; L -0.065 ± 0.05; E -0.072 ± 0.049; Y -0.041 ± 0.14; M 0.022 ± 0.064; D -0.702 ± 0.2; N -0.033 ± 0.1; H -0.044 ± 0.057; T -0.03 ± 0.055; G -0.208 ± 0.044; K -0.11 ± 0.058; R 0.004 ± 0.043; S 0.011 ± 0.049; C -0.003 ± 0.063; I -0.121 ± 0.083; W -0.206 ± 0.055; P -0.099 ± 0.063; F -0.229 ± 0.12
Q22: W -0.054 ± 0.044; N 0.255 ± 0.059; H 0.269 ± 0.077; F 0.047 ± 0.068; V 0.288 ± 0.045; M 0.309 ± 0.054; E 0.313 ± 0.047; I -0.068 ± 0.11; D 0.297 ± 0.048; C 0.117 ± 0.058; A 0.26 ± 0.04; G 0.253 ± 0.041; P -0.071 ± 0.05; K -0.075 ± 0.058; Y 0.101 ± 0.061; S 0.24 ± 0.043; T 0.174 ± 0.044; L 0.063 ± 0.049; R 0.165 ± 0.038
G12: V -0.267 ± 0.043; K -0.02 ± 0.05; M -0.143 ± 0.049; F -0.384 ± 0.065; P -0.227 ± 0.05; D -0.274 ± 0.079; N -0.187 ± 0.087; W -0.27 ± 0.046; L -0.261 ± 0.046; Y -0.75 ± 0.15; R -0.145 ± 0.04; Q -0.003 ± 0.048; C -0.272 ± 0.067; H -0.15 ± 0.069; E 0.034 ± 0.046; A 0.013 ± 0.039; T 0.039 ± 0.044; S -0.038 ± 0.043; I -0.395 ± 0.075
L17: D -0.332 ± 0.06; S -0.262 ± 0.048; Q -0.015 ± 0.068; E -0.146 ± 0.05; K -0.359 ± 0.076; M 0.043 ± 0.055; A -0.035 ± 0.043; Y -0.202 ± 0.14; V -0.027 ± 0.044; H -0.017 ± 0.068; R -0.348 ± 0.047; I -0.009 ± 0.091; G -0.135 ± 0.041; F -0.079 ± 0.059; W -0.135 ± 0.062; C -0.077 ± 0.071; T -0.06 ± 0.05; P -0.311 ± 0.071; N -0.53 ± 0.19
S8: H 0.188 ± 0.074; F -0.039 ± 0.084; I 0.309 ± 0.065; V 0.374 ± 0.04; N 0.297 ± 0.072; D 0.076 ± 0.057; W -0.015 ± 0.046; T 0.246 ± 0.05; A 0.321 ± 0.039; G 0.248 ± 0.041; M 0.355 ± 0.05; R 0.332 ± 0.038; Q 0.397 ± 0.053; P -1.19 ± 0.17; K 0.486 ± 0.044; E 0.154 ± 0.046; Y 0.192 ± 0.076; L 0.062 ± 0.042
L9: M -0.097 ± 0.053; C -0.184 ± 0.066; Q 0.093 ± 0.045; P 0.15 ± 0.049; G 0.121 ± 0.038; F -0.062 ± 0.061; W -0.095 ± 0.044; V 0.015 ± 0.04; D -0.073 ± 0.056; T 0.083 ± 0.042; E -0.021 ± 0.044; S 0.009 ± 0.048; N -0.121 ± 0.056; R -0.012 ± 0.04; K -0.096 ± 0.056
H4: W 0.079 ± 0.045; Y 0.116 ± 0.059
D18: C -0.107 ± 0.088; V -0.073 ± 0.059; P 0.236 ± 0.047; I -0.039 ± 0.071; Y -0.127 ± 0.053; A -0.007 ± 0.047; G -0.083 ± 0.051; M 0.175 ± 0.051; H -0.08 ± 0.15; N 0.138 ± 0.095; R 0.155 ± 0.044; F -0.101 ± 0.12; Q 0.067 ± 0.056; L 0.036 ± 0.042; E -0.06 ± 0.054; S 0.017 ± 0.048; K -0.028 ± 0.069
S11: I -0.312 ± 0.093; R -0.406 ± 0.044; P -0.454 ± 0.071; G -0.169 ± 0.041; T -0.155 ± 0.049; M -0.426 ± 0.072; W -0.565 ± 0.063; F -0.397 ± 0.082; Q -0.275 ± 0.14; E -0.276 ± 0.3; V -0.418 ± 0.045; A -0.374 ± 0.047; C -0.512 ± 0.08; L -0.374 ± 0.048
W19: R 0.157 ± 0.038; P 0.224 ± 0.055; F 0.364 ± 0.059; Y 0.269 ± 0.075; C 0.276 ± 0.05; V 0.167 ± 0.043; N 0.225 ± 0.1; A 0.175 ± 0.044; D -0.035 ± 0.16; M 0.48 ± 0.047; L 0.332 ± 0.042; T 0.326 ± 0.051; E 0.201 ± 0.059; H 0.137 ± 0.16; G 0.105 ± 0.04; K 0.183 ± 0.048; Q 0.225 ± 0.066; I 0.234 ± 0.13; S 0.365 ± 0.042
P14: E -0.309 ± 0.061; G -0.206 ± 0.042; D -0.24 ± 0.077; N -0.153 ± 0.24; A -0.223 ± 0.045; L -0.523 ± 0.054; V -0.246 ± 0.054; R -0.459 ± 0.048; F -0.371 ± 0.21; Q -0.39 ± 0.071; W -0.528 ± 0.061; I -0.264 ± 0.097; M -0.169 ± 0.065; T -0.381 ± 0.079; C -0.6 ± 0.13; H -0.212 ± 0.087; S -0.386 ± 0.056
K13: N -0.198 ± 0.13; T -0.081 ± 0.064; E -0.001 ± 0.052; A -0.037 ± 0.051; P 0.042 ± 0.059; C -0.117 ± 0.12; R 0.05 ± 0.046; S -0.062 ± 0.053; V -0.169 ± 0.047; G -0.162 ± 0.044; I -0.098 ± 0.083; L -0.048 ± 0.048; Q 0.039 ± 0.054; D 0.019 ± 0.068; M -0.444 ± 0.15; F -0.135 ± 0.067; H -0.043 ± 0.077; Y -0.389 ± 0.14
D21: V -0.355 ± 0.052; G -0.114 ± 0.044; T 0.004 ± 0.051; N 0.027 ± 0.062; S -0.065 ± 0.045; M 0.068 ± 0.054; Y -0.386 ± 0.089; R -0.075 ± 0.044; H -0.182 ± 0.1; C -0.204 ± 0.07; Q 0.033 ± 0.055; K 0.086 ± 0.051; E -0.114 ± 0.056; P -0.146 ± 0.053
Y5: L 0.082 ± 0.039; I -0.061 ± 0.062; H -0.066 ± 0.055; P -0.906 ± 0.076; G 0.156 ± 0.037; F 0.095 ± 0.051; R 0.19 ± 0.037; K 0.294 ± 0.046; A 0.267 ± 0.039; E -0.081 ± 0.051; N 0.021 ± 0.071; C 0.01 ± 0.055; T -0.009 ± 0.051; M 0.313 ± 0.047; D -0.615 ± 0.07; Q 0.203 ± 0.048
C6: F -1.2 ± 0.35; V -0.995 ± 0.077; Q -0.892 ± 0.12; R -0.919 ± 0.072; H -0.821 ± 0.13; G -1.05 ± 0.07; P -0.949 ± 0.13; Y -0.828 ± 0.13; M -0.325 ± 0.19; W -0.978 ± 0.12; D -1.01 ± 0.27
Q20: D 0.456 ± 0.054; M 0.394 ± 0.053; F 0.198 ± 0.1; V 0.032 ± 0.049; A 0.265 ± 0.051; G 0.334 ± 0.043; Y -0.3 ± 0.21; K 0.456 ± 0.052; N 0.348 ± 0.063; P 0.179 ± 0.091; H -0.021 ± 0.15; W 0.014 ± 0.053; L 0.08 ± 0.06; R 0.151 ± 0.043; S 0.245 ± 0.047; E 0.492 ± 0.05
F24: Q -0.038 ± 0.046; V 0.133 ± 0.041; E -0.143 ± 0.045; C 0.112 ± 0.057; P -0.383 ± 0.068; T -0.033 ± 0.048; G -0.136 ± 0.042; W 0.051 ± 0.045; L 0.203 ± 0.041; D -0.376 ± 0.064; K 0.084 ± 0.045; I 0.072 ± 0.078; N 0.001 ± 0.083
Q25: E 0.226 ± 0.043; D 0.085 ± 0.056; C -0.081 ± 0.062; A -0.044 ± 0.04; F -0.035 ± 0.073; G 0.088 ± 0.039
E15: V 0.057 ± 0.046; M 0.152 ± 0.089; K -0.46 ± 0.078; A -0.075 ± 0.051; C 0.008 ± 0.052; F -0.049 ± 0.15; G -0.56 ± 0.082; H -0.017 ± 0.082; D -0.155 ± 0.097; N -0.015 ± 0.1; Q -0.086 ± 0.068; W -0.033 ± 0.045; L -0.014 ± 0.047; I 0.093 ± 0.054; S -0.108 ± 0.064; T 0.076 ± 0.062
H7: F 0.165 ± 0.15; Y 0.112 ± 0.053; T 0.124 ± 0.059; M -0.133 ± 0.067; W -0.187 ± 0.088; K 0.055 ± 0.062; V -0.145 ± 0.05; R 0.049 ± 0.046; E 0.158 ± 0.06; D 0.226 ± 0.07; N 0.126 ± 0.064; S 0.237 ± 0.058; G 0.117 ± 0.043; I 0.088 ± 0.095; A 0.154 ± 0.042; Q -0.12 ± 0.088
V23: N 0.169 ± 0.056; M 0.338 ± 0.047; L 0.155 ± 0.04; G -0.003 ± 0.042; A 0.023 ± 0.041; D -0.085 ± 0.05; Q 0.246 ± 0.044; R 0.294 ± 0.039; W 0.134 ± 0.044; Y -0.164 ± 0.073; H 0.111 ± 0.051; E 0.227 ± 0.049; C 0.236 ± 0.046; S 0.287 ± 0.047; T 0.175 ± 0.047; K 0.268 ± 0.055
F10: Q -0.685 ± 0.065; G -0.408 ± 0.046; I -0.115 ± 0.064; E -0.691 ± 0.08; H -0.043 ± 0.082; D -0.623 ± 0.079; W -0.298 ± 0.054; R -0.498 ± 0.05; T -0.16 ± 0.049; A -0.316 ± 0.048; Y -0.191 ± 0.093; S -0.316 ± 0.053; P -0.052 ± 0.048; N -0.373 ± 0.084; K -0.535 ± 0.085
